Measurements: patent US20220288169A1, “COMPOSITIONS AND METHODS FOR THE TREATMENT AND PREVENTION OF HYPOGLYCEMIC COMPLICATIONS” (The Board of Supervisors of Louisiana State University and …, priority 2019, published 2022)
Several values for one entry are separate records, joined by “and”; a condition that tells them apart may be missing. Equal entries are not always repeated. Entries after “also recorded” stand apart in the source; their conditions may differ. Where two headings read alike, the source gives them in different places.

What was measured:
[1] = tested on: male C57BL/6J mice exposed to 60% caloric restriction (CR mice); type: in vivo, mouse
Description: In order to overcome differences in baseline blood glucose levels between groups, a variable dose of insulin (IP) was used to produce equivalent exposure to hypoglycemia (A). […] Data were analyzed via one or two way ANOVA. Group differences were determined via Bonferroni's multiple comparison test with significance levels as follows: *- p<0.05; n=7-8/group. A total of 149 mice were subjected to the severe caloric restriction and refeeding paradigm across four separate experiments. The following procedures were identical across all four experiments. Animals were randomly assigned to one of two groups: Mice exposed to severe caloric restriction for six days (CR mice) or ad libitum fed mice (Ad-lib mice). […] Following a five-day acclimation period to wire-bottomed cages (Days 0-4), food intake was monitored daily in each mouse for six days prior to initiation of caloric restriction, and each mouse's average daily food intake was determined (Days 5-10). […] Body weight and free-living blood glucose were measured daily immediately prior to feeding. […] During the refeeding period, food intake, free-living blood glucose, and body weight continued to be measured daily at 1.5 h before lights off in both CR and Ad-lib mice up to the terminal day of the experiments. […] Rat leptin levels were determined by […], MilliporeSigma, St. Louis, Mo.). […]

[2] = tested on: male Sprague Dawley rats exposed to 3dRH (rat model of HAAF); type: in vivo
Description: For Experiment 5, a total of 21 rats were subjected to a three day recurrent hypoglycemia (3dRH) paradigm adapted from previous studies (44). […] On each of the three days of the paradigm, all rats received an IP injection of either PBS or leptin at ≈1.5 h prior to lights off. […] On the fourth day, all three cohorts of rats were then subjected to a hypoglycemic ITT for determination of hypoglycemia-induced epinephrine, glucagon, and corticosterone secretion. Leptin levels were also assayed in each group at the conclusion of the ITT. […] For mice, trunk blood was collected following CO2 euthanasia. […] Louis, Mo.). […] Rat leptin levels were determined by […], MilliporeSigma, St. Louis, Mo.). […] Methods: In experiment one, 3 groups of mice (two CR groups and one ad-lib fed control group) received either twice daily leptin (0.5-1 μg/g, IP) or PBS. In experiment two, 3 groups of rats (two 3dRH and one control) received daily leptin or PBS injections (0.3-0.7 mg/kg, IP).

[3] = tested on: rats exposed to a single bout of hypoglycemia or 3dRH; settings: cited from earlier work
starved rats = settings: acute leptin infusion during starvation, cited from earlier work
[4] = acute ICV leptin in 3dRH rats, first 40 min of 90 min hypoglycemic challenge, relative to 3dRH rats not treated with leptin
[5] = acute ICV leptin infusion, rats exposed to a single bout of hypoglycemia

B1: leptin (protein, UniProt P50596 22-167, looked up)
Leptin: VPIHKVQDDTKTLIKTIVTRINDISHTQSVSARQRVTGLDFIPGLHPILSLSKMDQTLAVYQQILTSLPSQNVLQIAHDLENLRDLLHLLAFSKSCSLPQTRGLQKPESLDGVLEASLYSTEVVALSRLQGSLQDILQQLDLSPEC
notes: hormone secreted by adipocytes
hypoglycemia-induced glucagon levels ([1]; CR+Leptin mice, twice daily IP leptin 0.5-1 μg/g during CR, 60 min of ITT, Day 1 of refeeding, mean (SD)): 91.7 pmol/L and 78.1 pmol/L
serum glucagon levels in response to the ITT ([1]; Example 7, leptin-treated CR mice, 0.5-1 μg/g IP twice daily, after 16 h refeeding and 6 h fast): 78.0 ± 16.8 pg/mL
hypoglycemia-induced glucagon levels ([2]; 3dRH paradigm with leptin): not affected
hypoglycemia-induced glucagon levels ([2]; 3dRH+Leptin rats, 60 min of ITT, mean (SD)): 34 pmol/L
increase of epinephrine levels relative to untreated 3dRH rats ([2]; leptin concurrent with antecedent hypoglycemia): 50%
leptin levels at the 60-minute time point relative to controls ([2]; rat, in vivo): significantly increased
serum leptin levels at the conclusion of the ITT ([2]; rat, in vivo): 5.1 ng/mL
epinephrine levels increased by [3, 4]: 25%
glucagon levels increased by [3, 4]: 45%
epinephrine levels increased by [3, 5]: 19%
glucagon levels decreased by [3, 5]: 50%
rescue of counter-regulation by acute leptin ([3]; acute leptin administration, 3dRH rats): did not restore counter-regulation; also recorded: does not reverse the effects of 3dRH; also recorded: did not correct the deficit in epinephrine release; also recorded: does not rescue the effect
epinephrine levels lower than untreated rats exposed to a single bout of hypoglycemia ([3]; leptin treated 3dRH rats): 60%
effect on blood glucose (starved rats; physiological doses): reducing blood glucose
effect on blood glucose (starved rats; supraphysiological doses): increasing blood glucose
